The values below come from patent publication US20220040232A1.

Test [1] deals with cell surface receptors for M1 peptide (TCR Vβ17) on expanded Vβ17+CD8+ T cells. In words: tetramer staining, flow cytometry on enriched Vβ17+CD8+ T cells expanded with M1 peptide and IL-2.
For test [2] the target is unchanged. Put plainly: flow cytometry, […] (91.6) […].
For test [3] the target is unchanged. Put plainly: flow cytometry, staining with M1 peptide loaded MHC class I tetramer and anti-human Vβ17 mAb; enriched Vβ17+CD8+ T cells from day 12 PBMCs stimulated with M1 peptide and IL-2. For orientation: A flow cytometer gives signals particle by particle.

As for “Influenza A derived Matrix protein (M1) peptide loaded MHC class I tetramer (MBL, Catalog No. TS-0012-2C) (peptide-MHC)”, the percent of expanded Vβ17+CD8+ T cells positive for the tetramer in test [1] stood at 86%. In test [2], this substance returned a % M1 Tet-negative Vβ17+ cells among gated Vβ17+CD8+ T cells of 11.9% and a % M1 Tet-positive Vβ17+ cells among gated Vβ17+CD8+ T cells of 86.8%. Also, in test [3], the % M1 Tet-negative Vβ17+ cells among enriched Vβ17+CD8+ T cells came to 11.9% and the % M1 Tet-positive Vβ17+ cells among enriched Vβ17+CD8+ T cells was determined as 86.8%.
